± gives the uncertainty stated by the source.

Data on 36 variants can be found in the Human Domainome abundance scans (Beltran et al. 2025).

B1: Androgen receptor, residues 557 to 632; numbered along this chain, P10275 (parent)
chain: QKTCLICGDEASGCHYGALTCGSCKVFFKRAAEGKQKYLCASRNDCTIDKFRRKNCPSCRLRKCYEAGMTLGARKL

The variants in the series derive from B1. The series is described as follows: abundance fitness (aPCA) (normalised: wild type 0, dead -1); higher = more abundant; growth selection in yeast, the domain comes from the species named. The following applies: Homo sapiens.
As to QKTCLICGDEASGCHYGALTCGSGKVFFKRAAEGKQKYLCASRNDCTIDKFRRKNCPSCRLRKCYEAGMTLGARKL [C24G], the abundance fitness was -0.907 ± 0.04.
Regarding QKTCLICGDEASGCHYGALTCGSDKVFFKRAAEGKQKYLCASRNDCTIDKFRRKNCPSCRLRKCYEAGMTLGARKL [C24D], the abundance fitness is -0.695 ± 0.064.
In the case of QKTCLICGDEASGCHYGALTCGSNKVFFKRAAEGKQKYLCASRNDCTIDKFRRKNCPSCRLRKCYEAGMTLGARKL [C24N], the abundance fitness is -0.904 ± 0.094.
As to QKTCLICGDEASGCHYGALTCGSQKVFFKRAAEGKQKYLCASRNDCTIDKFRRKNCPSCRLRKCYEAGMTLGARKL [C24Q], the abundance fitness was -0.932 ± 0.086.
The same measure for QKTCLICGDEASGCHYGALTCGSYKVFFKRAAEGKQKYLCASRNDCTIDKFRRKNCPSCRLRKCYEAGMTLGARKL [C24Y]: -1.08 ± 0.15; for QKTCLICGDEASGCHYGALTCGSMKVFFKRAAEGKQKYLCASRNDCTIDKFRRKNCPSCRLRKCYEAGMTLGARKL [C24M]: -0.964 ± 0.075; for QKTCLICGDEASGCHYGALTCGSAKVFFKRAAEGKQKYLCASRNDCTIDKFRRKNCPSCRLRKCYEAGMTLGARKL [C24A]: -0.96 ± 0.055.
The same measure for QKTCLICGDEASGCHYGALTCGSIKVFFKRAAEGKQKYLCASRNDCTIDKFRRKNCPSCRLRKCYEAGMTLGARKL [C24I]: -0.904 ± 0.076.
With QKTCLICGDEASGCHYGALTCGSHKVFFKRAAEGKQKYLCASRNDCTIDKFRRKNCPSCRLRKCYEAGMTLGARKL [C24H], the abundance fitness is -0.891 ± 0.095.
Consider QKTCLICGDEASGCHYGALTCGSVKVFFKRAAEGKQKYLCASRNDCTIDKFRRKNCPSCRLRKCYEAGMTLGARKL [C24V], for which the abundance fitness is -0.907 ± 0.048.
Consider QKTCLICGDEASGCHYGALTCGSLKVFFKRAAEGKQKYLCASRNDCTIDKFRRKNCPSCRLRKCYEAGMTLGARKL [C24L], for which the abundance fitness is -0.898 ± 0.046.
The same measure for QKTCLICGDEASGCHYGALTCGSSKVFFKRAAEGKQKYLCASRNDCTIDKFRRKNCPSCRLRKCYEAGMTLGARKL [C24S]: -1.1 ± 0.072; for QKTCLICGDEASGCHYGALTCGSPKVFFKRAAEGKQKYLCASRNDCTIDKFRRKNCPSCRLRKCYEAGMTLGARKL [C24P]: -0.853 ± 0.069.
The same measure for QKTCLICGDEASGCHYGALTCGSEKVFFKRAAEGKQKYLCASRNDCTIDKFRRKNCPSCRLRKCYEAGMTLGARKL [C24E]: -0.909 ± 0.063; for QKTCLICGDEASGCHYGALTCGSFKVFFKRAAEGKQKYLCASRNDCTIDKFRRKNCPSCRLRKCYEAGMTLGARKL [C24F]: -1.06 ± 0.099; for QKTCLICGDEASGCHYGALTCGSWKVFFKRAAEGKQKYLCASRNDCTIDKFRRKNCPSCRLRKCYEAGMTLGARKL [C24W]: -0.903 ± 0.059.
Consider QKTCLICGDEASGCHYGALTCGSTKVFFKRAAEGKQKYLCASRNDCTIDKFRRKNCPSCRLRKCYEAGMTLGARKL [C24T], for which the abundance fitness is -0.902 ± 0.06.
The same measure for QKTCLICGDEASGCHYGALTCGSKKVFFKRAAEGKQKYLCASRNDCTIDKFRRKNCPSCRLRKCYEAGMTLGARKL [C24K]: -0.957 ± 0.079; for QKTCLICGDEASGCHYGALTCGWCKVFFKRAAEGKQKYLCASRNDCTIDKFRRKNCPSCRLRKCYEAGMTLGARKL [S23W]: -0.137 ± 0.041.
The same measure for QKTCLICGDEASGCHYGALTCGFCKVFFKRAAEGKQKYLCASRNDCTIDKFRRKNCPSCRLRKCYEAGMTLGARKL [S23F]: -0.11 ± 0.084; for QKTCLICGDEASGCHYGALTCGDCKVFFKRAAEGKQKYLCASRNDCTIDKFRRKNCPSCRLRKCYEAGMTLGARKL [S23D]: -0.069 ± 0.069; for QKTCLICGDEASGCHYGALTCGKCKVFFKRAAEGKQKYLCASRNDCTIDKFRRKNCPSCRLRKCYEAGMTLGARKL [S23K]: -0.142 ± 0.039.
For QKTCLICGDEASGCHYGALTCGYCKVFFKRAAEGKQKYLCASRNDCTIDKFRRKNCPSCRLRKCYEAGMTLGARKL [S23Y], the abundance fitness was -0.122 ± 0.057.
The same measure for QKTCLICGDEASGCHYGALTCGQCKVFFKRAAEGKQKYLCASRNDCTIDKFRRKNCPSCRLRKCYEAGMTLGARKL [S23Q]: -0.084 ± 0.042.
The same measure for QKTCLICGDEASGCHYGALTCGMCKVFFKRAAEGKQKYLCASRNDCTIDKFRRKNCPSCRLRKCYEAGMTLGARKL [S23M]: -0.137 ± 0.035; for QKTCLICGDEASGCHYGALTCGGCKVFFKRAAEGKQKYLCASRNDCTIDKFRRKNCPSCRLRKCYEAGMTLGARKL [S23G]: -0.054 ± 0.029; for QKTCLICGDEASGCHYGALTCGICKVFFKRAAEGKQKYLCASRNDCTIDKFRRKNCPSCRLRKCYEAGMTLGARKL [S23I]: -0.836 ± 0.36.
Turning to QKTCLICGDEASGCHYGALTCGNCKVFFKRAAEGKQKYLCASRNDCTIDKFRRKNCPSCRLRKCYEAGMTLGARKL [S23N], the abundance fitness is -0.108 ± 0.082.
The same measure for QKTCLICGDEASGCHYGALTCGLCKVFFKRAAEGKQKYLCASRNDCTIDKFRRKNCPSCRLRKCYEAGMTLGARKL [S23L]: -0.283 ± 0.035; for QKTCLICGDEASGCHYGALTCGACKVFFKRAAEGKQKYLCASRNDCTIDKFRRKNCPSCRLRKCYEAGMTLGARKL [S23A]: -0.163 ± 0.037.
The same measure for QKTCLICGDEASGCHYGALTCGCCKVFFKRAAEGKQKYLCASRNDCTIDKFRRKNCPSCRLRKCYEAGMTLGARKL [S23C]: -0.185 ± 0.076; for QKTCLICGDEASGCHYGALTCGECKVFFKRAAEGKQKYLCASRNDCTIDKFRRKNCPSCRLRKCYEAGMTLGARKL [S23E]: -0.013 ± 0.034.
Consider QKTCLICGDEASGCHYGALTCGHCKVFFKRAAEGKQKYLCASRNDCTIDKFRRKNCPSCRLRKCYEAGMTLGARKL [S23H], for which the abundance fitness was -0.036 ± 0.077.
The same measure for QKTCLICGDEASGCHYGALTCGTCKVFFKRAAEGKQKYLCASRNDCTIDKFRRKNCPSCRLRKCYEAGMTLGARKL [S23T]: -0.233 ± 0.041.
For the variant QKTCLICGDEASGCHYGALTCGSCAVFFKRAAEGKQKYLCASRNDCTIDKFRRKNCPSCRLRKCYEAGMTLGARKL [K25A], the abundance fitness is 0.026 ± 0.022.
The same measure for QKTCLICGDEASGCHYGALTCCSCKVFFKRAAEGKQKYLCASRNDCTIDKFRRKNCPSCRLRKCYEAGMTLGARKL [G22C]: -0.064 ± 0.051.
